From paper PMC5002983, “Hepatocyte Growth Factor Modulates MET Receptor Tyrosine Kinase and β-Catenin Functional Interactions to Enhance Synapse Formation” (eNeuro, 2016) come the findings set out here.

The labels stand for the following.
B1: MET receptor tyrosine kinase (receptor, UniProt P16056 25-1379, looked up)
chain: ECKEALVKSEMNVNMKYQLPNFTAETPIQNVVLHGHHIYLGATNYIYVLNDKDLQKVSEFKTGPVLEHPDCLPCRDCSSKANSSGGVWKDNINMALLVDTYYDDQLISCGSVNRGTCQRHVLPPDNSADIQSEVHCMFSPEEESGQCPDCVVSALGAKVLLSEKDRFINFFVGNTINSSYPPGYSLHSISVRRLKETQDGFKFLTDQSYIDVLPEFLDSYPIKYIHAFESNHFIYFLTVQKETLDAQTFHTRIIRFCSVDSGLHSYMEMPLECILTEKRRKRSTREEVFNILQAAYVSKPGANLAKQIGASPSDDILFGVFAQSKPDSAEPVNRSAVCAFPIKYVNDFFNKIVNKNNVRCLQHFYGPNHEHCFNRTLLRNSSGCEARSDEYRTEFTTALQRVDLFMGRLNQVLLTSISTFIKGDLTIANLGTSEGRFMQVVLSRTAHLTPHVNFLLDSHPVSPEVIVEHPSNQNGYTLVVTGKKITKIPLNGLGCGHFQSCSQCLSAPYFIQCGWCHNQCVRFDECPSGTWTQEICLPAVYKVFPTSAPLEGGTVLTICGWDFGFRKNNKFDLRKTKVLLGNESCTLTLSESTTNTLKCTVGPAMSEHFNVSVIISNSRETTQYSAFSYVDPVITSISPRYGPQAGGTLLTLTGKYLNSGNSRHISIGGKTCTLKSVSDSILECYTPAQTTSDEFPVKLKIDLANRETSSFSYREDPVVYEIHPTKSFISGGSTITGIGKTLNSVSLPKLVIDVHEVGVNYTVACQHRSNSEIICCTTPSLKQLGLQLPLKTKAFFLLDGILSKHFDLTYVHNPVFEPFEKPVMISMGNENVVEIKGNNIDPEAVKGEVLKVGNQSCESLHWHSGAVLCTVPSDLLKLNSELNIEWKQAVSSTVLGKVIVQPDQNFAGLIIGAVSISVVVLLLSGLFLWMRKRKHKDLGSELVRYDARVHTPHLDRLVSARSVSPTTEMVSNESVDYRATFPEDQFPNSSQNGACRQVQYPLTDLSPILTSGDSDISSPLLQNTVHIDLSALNPELVQAVQHVVIGPSSLIVHFNEVIGRGHFGCVYHGTLLDNDGKKIHCAVKSLNRITDIEEVSQFLTEGIIMKDFSHPNVLSLLGICLRSEGSPLVVLPYMKHGDLRNFIRNETHNPTVKDLIGFGLQVAKGMKYLASKKFVHRDLAARNCMLDEKFTVKVADFGLARDMYDKEYYSVHNKTGAKLPVKWMALESLQTQKFTTKSDVWSFGVLLWELMTRGAPPYPDVNTFDITIYLLQGRRLLQPEYCPDALYEVMLKCWHPKAEMRPSFSELVSRISSIFSTFIGEHYVHVNATYVNVKCVAPYPSLLPSQDNIDGEGNT
notes: MET receptor tyrosine kinase (hepatocyte growth factor receptor), mouse, endogenous; Endogenous protein, precipitated with goat anti-MET (R&D Systems); With HGF the receptor is phosphorylated (pMET blot); source: endogenous, lysate of crude synaptosomes from P14 mouse neocortex; endogenous, primary mouse neocortical neurons (14 DIV)
B2: N-cadherin (natural protein, UniProt P15116 160-906, looked up)
chain: DWVIPPINLPENSRGPFPQELVRIRSDRDKNLSLRYSVTGPGADQPPTGIFIINPISGQLSVTKPLDRELIARFHLRAHAVDINGNQVENPIDIVINVIDMNDNRPEFLHQVWNGSVPEGSKPGTYVMTVTAIDADDPNALNGMLRYRILSQAPSTPSPNMFTINNETGDIITVAAGLDREKVQQYTLIIQATDMEGNPTYGLSNTATAVITVTDVNDNPPEFTAMTFYGEVPENRVDVIVANLTVTDKDQPHTPAWNAAYRISGGDPTGRFAILTDPNSNDGLVTVVKPIDFETNRMFVLTVAAENQVPLAKGIQHPPQSTATVSVTVIDVNENPYFAPNPKIIRQEEGLHAGTMLTTLTAQDPDRYMQQNIRYTKLSDPANWLKIDPVNGQITTIAVLDRESPNVKNNIYNATFLASDNGIPPMSGTGTLQIYLLDINDNAPQVLPQEAETCETPEPNSINITALDYDIDPNAGPFAFDLPLSPVTIKRNWTINRLNGDFAQLNLKIKFLEAGIYEVPIIITDSGNPPKSNISILRVKVCQCDSNGDCTDVDRIVGAGLGTGAIIAILLCIIILLILVLMFVVWMKRRDKERQAKQLLIDPEDDVRDNILKYDEEGGGEEDQDYDLSQLQQPDTVEPDAIKPVGIRRLDERPIHAEPQYPVRSAAPHPGDIGDFINEGLKAADNDPTAPPYDSLLVFDYEGSGSTAGSLSSLNSSSSGGDQDYDYLNDWGPRFKKLADMYGGGDD
notes: N-cadherin (cadherin-2), mouse, endogenous; Endogenous protein, precipitated with rabbit anti-N-cadherin (Santa Cruz Biotechnology); source: endogenous, lysate of crude synaptosomes from P14 mouse neocortex
B3: synapsin 1 (natural protein)
chain: not shown
notes: synapsin 1, mouse, endogenous; also called Syn 1; source: endogenous, lysate of crude synaptosomes from P14 mouse neocortex; endogenous, primary mouse neocortical neurons (14 DIV)
B4: β-catenin (natural protein, UniProt Q02248 1-781, looked up)
chain: MATQADLMELDMAMEPDRKAAVSHWQQQSYLDSGIHSGATTTAPSLSGKGNPEEEDVDTSQVLYEWEQGFSQSFTQEQVADIDGQYAMTRAQRVRAAMFPETLDEGMQIPSTQFDAAHPTNVQRLAEPSQMLKHAVVNLINYQDDAELATRAIPELTKLLNDEDQVVVNKAAVMVHQLSKKEASRHAIMRSPQMVSAIVRTMQNTNDVETARCTAGTLHNLSHHREGLLAIFKSGGIPALVKMLGSPVDSVLFYAITTLHNLLLHQEGAKMAVRLAGGLQKMVALLNKTNVKFLAITTDCLQILAYGNQESKLIILASGGPQALVNIMRTYTYEKLLWTTSRVLKVLSVCSSNKPAIVEAGGMQALGLHLTDPSQRLVQNCLWTLRNLSDAATKQEGMEGLLGTLVQLLGSDDINVVTCAAGILSNLTCNNYKNKMMVCQVGGIEALVRTVLRAGDREDITEPAICALRHLTSRHQEAEMAQNAVRLHYGLPVVVKLLHPPSHWPLIKATVGLIRNLALCPANHAPLREQGAIPRLVQLLVRAHQDTQRRTSMGGTQQQFVEGVRMEEIVEGCTGALHILARDVHNRIVIRGLNTIPLFVQLLYSPIENIQRVAAGVLCELAQDKEAAEAIEAEGATAPLTELLHSRNEGVATYAAAVLFRMSEDKPQDYKKRLSVELTSSLFRTEPMAWNETADLGLDIGAQGEALGYRQDDPSYRSFHSGGYGQDALGMDPMMEHEMGGHHPGADYPVDGLPDLGHAQDLMDGLPPGDSNQLAWFDTDL
notes: β-catenin, mouse, endogenous; Endogenous protein, precipitated with mouse anti-β-catenin (BD Biosciences); With HGF a part of it is phosphorylated at Y142; source: endogenous, lysate of crude synaptosomes from P14 mouse neocortex; endogenous, primary mouse neocortical neurons (14 DIV)

Common to all, as to settings: partners not purified
The assay “β-catenin” addresses B4. The experiment in a line: co-IP; crude synaptosomes from P14 mouse neocortex, PBS or 25 ng/ml HGF for 5 min at 37 °C, lysed in HEPES pH 7.4 buffer with 1% Triton X-100; IP with goat anti-MET, mouse anti-β-catenin or rabbit anti-N-cadherin (control IgG in parallel), protein G plus agarose, washes in lysis buffer plus 150 mM NaCl; Western blot; band ratios as fold change HGF/PBS, 3 experiments. In general terms: In western blotting, separated proteins are transferred to a membrane and probed.

Assay [1] has as its target B1. The description is as above.
The target in assay [2] is B1. The experiment in a line: proximity ligation; Duolink in situ PLA on fixed primary mouse neocortical neurons at 14 DIV, endogenous proteins, two antibodies (signal means 40 nm or less); PBS or 25 ng/ml HGF for 5, 10 or 30 min; PLA clusters per area of dendrite.
The target of the assay “N-cadherin” is B2. The experiment in a line: co-IP; crude synaptosomes from P14 mouse neocortex, PBS or 25 ng/ml HGF for 5 min at 37 °C, lysed in HEPES pH 7.4 buffer with 1% Triton X-100; IP with goat anti-MET, mouse anti-β-catenin or rabbit anti-N-cadherin (control IgG in parallel), protein G plus agarose, washes in lysis buffer plus 150 mM NaCl; Western blot; band ratios as fold change HGF/PBS, 3 experiments.

Turning to B1, the “mean fold change (HGF/PBS) of co-immunoprecipitated protein” value (from here on “mean fold change (HGF/PBS)”) with β-catenin turned out to be 0.376 fold. In the case of B2, the “mean fold change (HGF/PBS)” value with β-catenin worked out at 1.31 fold.

B3: in assay [1], the “mean fold change (HGF/PBS)” value is 1.8 fold. Besides, the “fold increase in density of PLA signal (HGF against PBS)” value in assay [2] was about 1.5 fold. Consider B4, for which the “mean fold change (HGF/PBS)” value in assay [1] stood at 0.399 fold; with N-cadherin, 1.39 fold.
